Reference: the DeepSol protein solubility set

assay: soluble on expression in E. coli; label from the status in PepcDB or PDB records

**Q.** With “MGTRCAVTPELRFVLAFPDVYEVGMSHLGLQILYGVLNTLDGVAAERAYAPWPDREAQLRAEGIPLATLESGTSLDRADIVGFTLQYELSYTNILNMLDLAGIPLLASERDERHPLIIGGGPCACNPEPLADFFDAFLLGDGEEAVIEIAEAFRAWKRAGGARSGLLERLAGIAGVYVPSFFAVRYGDNNRIAAVEPLRPDYGPVKRRFLAELEPAAYPTAPVVPFLKTIHDRVSVEISRGCTRGCRFCQAGYLYRPVRERSPEKILALVEETLRATGYDEISLLSLSTGDYGCLTPLLTELMARYASERIAVSLPSMRVGSLNDELVEAIRTVRKTGFTLAPEAGSERLRRVINKGISEEDLLRNAFEAYSHGWRLIKLYFMIGLPGETEEDLHGIVELARKVKMEGRRAGSGGEVNVSVSTFVPKAHTPFQWEPQIPVGEILEKQGLLRRELRARKLVFKWHDAPLSFMEGVFARGDRRLGAALRRAWELGCRFDGWGDRFDEAAWRTAFEETGIDPAFYHRRREPDEVLPWGHLDFGVTREFLLRELELSRQGAATEDCRTGRCTGCGVCDFSQVRLRLADDGLEHHHHHH” as the sequence, how does the “soluble on expression in E. coli” value read?
**A.** The value was “not soluble”.

**Q.** For SWMEEVIKLCGRELVRAQIAICGMSTWS, which “soluble on expression in E. coli” value is on record?
**A.** Its value is “soluble”.

**Q.** With “MAPQKCFLQIKGMTCASCVSNIERNLQKEAGVLSVLVALMAGKAEIKYDPEVIQPLEIAQFIQDLGFEAAVMEDYAGSDGNIELTITGMTCASCVHNIESKLTRTNGITYASVALATSKALVKFDPEIIGPRDIIKIIEEIGFHASLAQ” as the sequence, how does the “soluble on expression in E. coli” value read?
**A.** Its value is “soluble”.

**Q.** For “MAVPVQFRKPPMGGIGKKVAYYPGCSLEGAARAYDVSTRIVAKELGLELDYLEDYNCCGAMETKNVSFWGTMLLNARNMSLARRQGHNVIVAPCNGCSFSLQRVEYFLETDKNTLDRINQLLQEAGEKPLDNIPHTYHILEWFYHEAGPEKVKEKTKKPLRGLKVASYYGCLYTRPHFYARTYSHLAPEDEEQARPRKRETADDDEHPYYMEALLEAAGATSVEIEPMHTQCCGGPHSLSDEEVSEKFVMMILQTAKRNGADIIATECPLCHASLEMYRHRLMLKGVPDVDVPAAYFTQLLGLAFGYSVNDVKLKDNLSDPIPVLKRLGLA”, which “soluble on expression in E. coli” value is on record?
**A.** The value was “not soluble”.

**Q.** For “MSFFKKLKEKISKQTDTVTEKFKQGLEKTRNSFADKVNDLVFRYRKVDEDFFEELEEILIGADVGVSTVMELIDQLKEEVQRRNIQDPREVQAVISEKLIEIYKGDSDFTNEVNMQKDGLTVVLFVGVNGVGKTTTIGKMAHKFKSEGKSVLLAAGDTFRAGAIEQLEVWGDRVGVEVIKQGSGSDPAAVMYDAVQAAKARNVDVLLCDTAGRLQNKVNLMKELEKVKRVIEREVPGAPHEVLLVIDATTGQNGLSQAKTFREATNVTGIVLTKLDGTAKGGIVLAIRNEMDVPVKFVGLGEQMDDLQQFDPEQYVYGLFANLVETEEV”, which “soluble on expression in E. coli” value is on record?
**A.** The value was “not soluble”.

**Q.** With “MGHHHHHHSHMQHFKRTGTGTPVKRVRKAIEKSETTSEHTCQLCGGWFDTKIGLSNHVRGHLKRLGKTKWDAHKSPICVLNEMMQNEEKYEKILKALNSRRIIPRPFVAQKLASSDDFISQNVIPLEAYRNGLKTEALSVSASEEEGLNFLNEYDETKPELPSGKKNQSLTLIELLKNKRMGEERNSAISPQKIHNQTARKRFVQKCVLPLNEDSPLMYQPQKMDLTMHSALDCKQKKSRSRSGSKKKMLTLPHGADEVYILRCRFCGLVFRGPLSVQEDWIKHLQRHIVNANLPRTGAGMVEVTSLLKKPASITETSFSLLMAEAAS” as the sequence, how does the “soluble on expression in E. coli” value read?
**A.** The value was “not soluble”.

**Q.** For “GAMAVKVARPCRKIEKWTYLELKGSKANEGVPQAMTAFAEFLNRTGIPINPRFSPGMSMSVPGSEKEFFAKVKELMSSHQFVVVLLPRKDVAIYNMVKRAADITFGVHTVCCVAEKFLSTKGQLGYFANVGLKVNLKFGGTNHNI”, which “soluble on expression in E. coli” value is on record?
**A.** The value was “soluble”.

**Q.** For “MCGRFVLFTTDESLLGHPALRIFHSIHAPKGMPPARYNIAPTTIIPILRVGTTPTEAVIEPARWGLIPAWKREVTLPPLFNARAETVTTKPSFRQAFSTQRCAIPMDGYYEWHNKKPYWITTGAPTWVAGLWDSGAGMLSATMITTDSVAPLDWLHHRMPRFLNNDELAVWLRGSADEASGLLTPGDASAFHTSLADPSVGNIRNDYPELIDAPTDLFSL”, which “soluble on expression in E. coli” value is on record?
**A.** The value was “not soluble”.
